Paper PMC7490560 (2020)

Tests used:
ELF3 [1] = target: T1, ELF3 (Homo sapiens, UniProt P78545); test: FCCS (live HEK293T cells)
T1 chain: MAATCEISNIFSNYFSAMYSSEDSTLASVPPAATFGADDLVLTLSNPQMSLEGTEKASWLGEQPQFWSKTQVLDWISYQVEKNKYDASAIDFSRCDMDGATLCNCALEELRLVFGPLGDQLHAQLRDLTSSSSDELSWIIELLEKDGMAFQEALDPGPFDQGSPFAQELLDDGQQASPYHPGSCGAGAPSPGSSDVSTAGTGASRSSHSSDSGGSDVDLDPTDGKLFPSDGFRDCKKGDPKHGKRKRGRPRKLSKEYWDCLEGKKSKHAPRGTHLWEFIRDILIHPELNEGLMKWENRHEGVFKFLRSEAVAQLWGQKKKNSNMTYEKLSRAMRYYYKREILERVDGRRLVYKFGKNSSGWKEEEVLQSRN

FOSL2 [2] = target: T2, FOSL2 (Homo sapiens, UniProt P15408); test: FCCS (live HEK293T cells)
T2 chain: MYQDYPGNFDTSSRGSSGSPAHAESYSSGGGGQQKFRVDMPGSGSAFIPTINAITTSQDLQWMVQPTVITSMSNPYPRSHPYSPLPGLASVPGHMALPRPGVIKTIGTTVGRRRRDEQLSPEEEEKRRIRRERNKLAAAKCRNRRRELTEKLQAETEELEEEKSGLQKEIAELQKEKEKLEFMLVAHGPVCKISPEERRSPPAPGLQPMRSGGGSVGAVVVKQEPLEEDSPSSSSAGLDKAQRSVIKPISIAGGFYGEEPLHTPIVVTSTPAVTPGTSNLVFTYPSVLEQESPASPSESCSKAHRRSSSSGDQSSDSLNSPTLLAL

EIF3J = EIF3J (Homo sapiens, UniProt O75822); test: FCCS (live HEK293T cells)
CEBPG [3] = target: T3, CEBPG (Homo sapiens, UniProt P53567); test: FCCS (live HEK293T cells)
T3 chain: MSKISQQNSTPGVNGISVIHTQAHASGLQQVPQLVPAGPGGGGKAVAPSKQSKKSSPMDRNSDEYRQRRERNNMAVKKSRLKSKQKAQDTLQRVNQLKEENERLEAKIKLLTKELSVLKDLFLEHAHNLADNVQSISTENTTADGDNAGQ

CREBL2 = target: T4, CREBL2 (Homo sapiens, UniProt O60519); test: FCCS (live HEK293T cells)
T4 chain: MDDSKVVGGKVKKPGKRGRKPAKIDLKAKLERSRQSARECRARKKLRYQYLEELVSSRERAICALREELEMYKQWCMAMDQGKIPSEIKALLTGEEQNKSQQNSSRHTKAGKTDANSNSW

ELF3 [4] = target: T1, ELF3; test: DULIP (scaled)
MAP2K6 = target: T5, MAP2K6 (Homo sapiens, UniProt P52564); test: DULIP (scaled)
T5 chain: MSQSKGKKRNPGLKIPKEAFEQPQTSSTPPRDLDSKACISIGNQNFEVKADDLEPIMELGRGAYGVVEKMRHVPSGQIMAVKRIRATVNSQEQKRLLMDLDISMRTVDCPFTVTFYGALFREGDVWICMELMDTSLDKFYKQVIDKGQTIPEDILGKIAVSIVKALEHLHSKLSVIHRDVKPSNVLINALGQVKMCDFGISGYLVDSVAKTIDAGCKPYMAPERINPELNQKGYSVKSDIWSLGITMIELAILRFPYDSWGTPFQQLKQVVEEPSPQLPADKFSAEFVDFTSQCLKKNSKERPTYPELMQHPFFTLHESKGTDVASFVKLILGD

DDIT3 = target: T6, DDIT3 (Homo sapiens, UniProt P35638); test: DULIP (scaled)
T6 chain: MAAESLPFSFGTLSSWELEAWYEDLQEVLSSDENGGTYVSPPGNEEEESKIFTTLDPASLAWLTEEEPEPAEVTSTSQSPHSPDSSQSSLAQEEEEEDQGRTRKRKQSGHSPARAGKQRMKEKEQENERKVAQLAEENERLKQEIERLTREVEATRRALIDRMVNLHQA

FOSB = target: T7, FOSB (Homo sapiens, UniProt P53539); test: DULIP (scaled)
T7 chain: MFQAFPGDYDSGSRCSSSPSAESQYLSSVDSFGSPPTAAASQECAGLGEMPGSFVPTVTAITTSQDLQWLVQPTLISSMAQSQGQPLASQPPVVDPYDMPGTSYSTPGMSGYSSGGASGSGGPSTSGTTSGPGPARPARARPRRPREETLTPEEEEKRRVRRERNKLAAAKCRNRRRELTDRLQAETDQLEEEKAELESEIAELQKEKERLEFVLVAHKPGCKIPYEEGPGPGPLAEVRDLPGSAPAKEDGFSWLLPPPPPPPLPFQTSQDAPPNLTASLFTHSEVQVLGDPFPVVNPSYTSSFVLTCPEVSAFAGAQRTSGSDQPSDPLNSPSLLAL

FOSL2 [5] = target: T2, FOSL2; test: DULIP (scaled)
CEBPG [6] = target: T3, CEBPG; test: DULIP (scaled)

Chain of EIF3J (O75822 2-258): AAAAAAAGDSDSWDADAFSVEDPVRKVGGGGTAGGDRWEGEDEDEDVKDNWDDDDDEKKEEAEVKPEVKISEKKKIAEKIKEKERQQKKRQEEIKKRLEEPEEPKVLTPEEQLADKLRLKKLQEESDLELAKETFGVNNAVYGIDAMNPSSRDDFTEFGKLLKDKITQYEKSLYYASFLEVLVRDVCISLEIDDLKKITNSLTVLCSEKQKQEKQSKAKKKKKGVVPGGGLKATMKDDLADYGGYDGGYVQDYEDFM

Kd (ELF3 [1]): > 10 µM | Kd (FOSL2 [2]): > 10 µM | Kd (EIF3J): > 10 µM | Kd (CEBPG [3]): > 10 µM | Kd (CREBL2): > 10 µM | Kd (ELF3 [4]): > 9 µM | Kd (MAP2K6): > 9 µM | Kd (DDIT3): > 9 µM | Kd (FOSB): > 9 µM | Kd (FOSL2 [5]): > 9 µM | Kd (CEBPG [6]): > 9 µM
B1: NRF2 (protein)
chain: MMDLELPPPGLPSQQDMDLIDILWRQDIDLGVSREVFDFSQRRKEYELEKQKKLEKERQEQLQKEQEKAFFAQLQLDEETGEFLPIQPAQHIQSETSGSANYSQVAHIPKSDALYFDDCMQLLAQTFPFVDDNEVSSATFQSLVPDIPGHIESPVFIATNQAQSPETSVAQVAPVDLDGMQQDIEQVWEELLSIPELQCLNIENDKLVETTMVPSPEAKLTEVDNYHFYSSIPSMEKEVGNCSPHFLNAFEDSFSSILSTEDPNQLTVNSLNSDATVNTDFGDEFYSAFIAEPSISNSMPSPATLSHSLSELLNGPIDVSDLSLCKAFNQNHPESTAEFNDSDSGISLNTSPSVASPEHSVESSSYGDTLLGLSDSEVEELDSAPGSVKQNGPKTPVHSSGDMVQPLSPSQGQSTHVHDAQCENTPEKELPVSPGHRKTPFTKDKHSSRLEAHLTRDELRAKALHIPFPVEKIINLPVVDFNEMMSKEQFNEAQLALIRDIRRRGKNKVAAQNCRKRKLENIVELEQDLDHLKDEKEKLLKEKGENDKSLHLLKKQLSTLYLEVFSMLRDEDGKPYSPSEYSLQQTRDGNVFLVPKSKKPDVKKN
